In article PMC6959593:

Key:
[1] = molecular target: VEGFR-2 of HUVECs (human (endogenous in HUVECs)) (UniProt P35968)
[2] = molecular target: VEGFR-2 of HUVECs (human (endogenous in HUVECs)) (UniProt P35968); remark: listed apart in the source
[3] = molecular target: VEGFR-2 of HUVECs (human (endogenous in HUVECs)) (UniProt P35968); assay: proximity ligation; Duolink in situ PLA on HUVECs treated with VEGF/CaD for 2 min, fixed in paraformaldehyde and permeabilized; goat anti-VEGF and rabbit anti-VEGFR2 antibodies overnight at 4°C; dots per cell counted with ImageJ

Sequence of UniProt P35968 (P35968 20-1356): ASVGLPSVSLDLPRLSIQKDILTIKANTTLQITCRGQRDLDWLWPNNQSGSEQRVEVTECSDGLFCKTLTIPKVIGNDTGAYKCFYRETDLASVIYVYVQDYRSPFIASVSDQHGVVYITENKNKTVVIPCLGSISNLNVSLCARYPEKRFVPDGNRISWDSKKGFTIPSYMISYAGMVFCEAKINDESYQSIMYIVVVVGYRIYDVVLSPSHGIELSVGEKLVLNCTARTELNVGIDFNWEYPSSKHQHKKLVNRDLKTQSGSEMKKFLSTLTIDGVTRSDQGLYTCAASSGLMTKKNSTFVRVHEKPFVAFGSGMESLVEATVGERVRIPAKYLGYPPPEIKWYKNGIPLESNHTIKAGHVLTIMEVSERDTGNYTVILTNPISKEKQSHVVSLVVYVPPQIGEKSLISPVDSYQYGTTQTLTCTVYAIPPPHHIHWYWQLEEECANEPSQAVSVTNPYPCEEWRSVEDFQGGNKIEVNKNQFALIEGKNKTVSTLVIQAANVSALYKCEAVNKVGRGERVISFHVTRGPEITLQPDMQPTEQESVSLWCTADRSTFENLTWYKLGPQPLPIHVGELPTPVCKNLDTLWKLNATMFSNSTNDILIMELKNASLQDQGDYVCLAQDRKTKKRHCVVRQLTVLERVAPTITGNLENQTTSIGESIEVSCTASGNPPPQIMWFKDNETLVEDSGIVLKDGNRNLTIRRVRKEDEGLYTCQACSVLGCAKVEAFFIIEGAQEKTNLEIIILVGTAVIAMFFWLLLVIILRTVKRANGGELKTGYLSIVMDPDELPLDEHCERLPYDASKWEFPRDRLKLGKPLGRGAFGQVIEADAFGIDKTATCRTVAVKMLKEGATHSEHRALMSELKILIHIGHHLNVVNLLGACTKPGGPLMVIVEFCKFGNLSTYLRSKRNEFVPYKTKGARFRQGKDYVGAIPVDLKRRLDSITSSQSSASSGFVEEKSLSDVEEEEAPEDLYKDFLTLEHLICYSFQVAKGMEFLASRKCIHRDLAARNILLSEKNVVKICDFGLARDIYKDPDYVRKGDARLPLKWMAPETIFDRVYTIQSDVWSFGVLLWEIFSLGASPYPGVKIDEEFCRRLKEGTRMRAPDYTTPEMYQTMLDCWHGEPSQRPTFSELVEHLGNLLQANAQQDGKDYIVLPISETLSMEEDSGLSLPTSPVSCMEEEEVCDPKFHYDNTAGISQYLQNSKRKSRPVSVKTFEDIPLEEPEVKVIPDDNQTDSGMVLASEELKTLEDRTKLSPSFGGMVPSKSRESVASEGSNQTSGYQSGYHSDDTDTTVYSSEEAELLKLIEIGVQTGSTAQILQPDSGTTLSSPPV

recombinant VEGF165 (ligand)
VEGF165 (25 ng/mL)-induced phosphorylation of VEGFR-2 in HUVECs (Western blot, 2 min), VEGF165 premixed with CaD (6-100 μM) for 60 min [1]: < 50% | VEGF165 (25 ng/ml)-induced phosphorylation of VEGFR-2 in heparanase (HPSE, 0.5 μg/ml)-treated HUVECs, with CaD (100 μM), relative to VEGF alone (Western blot) [2]: 50% | decrease of the PLA signal in the presence of CaD [3]: 60%
